Experimental data reported in patent US20200270125.

Target: ST-pro-factor D-His, P00746
Sequence (P00746 whole entry, looked up): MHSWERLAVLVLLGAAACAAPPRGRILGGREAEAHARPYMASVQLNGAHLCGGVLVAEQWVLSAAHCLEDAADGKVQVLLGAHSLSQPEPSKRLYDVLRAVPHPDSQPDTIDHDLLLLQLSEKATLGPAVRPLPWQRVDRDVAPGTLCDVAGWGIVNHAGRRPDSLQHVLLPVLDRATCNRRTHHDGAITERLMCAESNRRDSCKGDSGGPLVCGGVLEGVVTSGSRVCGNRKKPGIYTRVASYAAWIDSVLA

B1: recombinant full-length human MASP-3 (protein)
chain: HTVELNNMFGQIQSPGYPDSYPSDSEVTWNITVPDGFRIKLYFMHFNLESSYLCEYDYVKVETEDQVLATFCGRETTDTEQTPGQEVVLSPGSFMSITFRSDFSNEERFTGFDAHYMAVDVDECKEREDEELSCDHYCHNYIGGYYCSCRFGYILHTDNRTCRVECSDNLFTQRTGVITSPDFPNPYPKSSECLYTIELEEGFMVNLQFEDIFDIEDHPEVPCPYDYIKIKVGPKVLGPFCGEKAPEPISTQSHSVLILFHSDNSGENRGWRLSYRAAGNECPELQPPVHGKIEPSQAKYFFKDQVLVSCDTGYKVLKDNVEMDTFQIECLKDGTWSNKIPTCKIVDCRAPGELEHGLITFSTRNNLTTYKSEIKYSCQEPYYKMLNNNTGIYTCSAQGVWMNKVLGRSLPTCLPECGQPSRSLPSLVKRIIGGRNAEPGLFPWQALIVVEDTSRVPNDKWFGSGALLSASWILTAAHVLRSQRRDTTVIPVSKEHVTVYLGLHDVRDKSGAVNSSAARVVLHPDFNIQNYNHDIALVQLQEPVPLGPHVMPVCLPRLEPEGPAPHMLGLVAGWGISNPNVTVDEIISSGTRTLSDVLQYVKLPVVPHAECKTSYESRSGNYSVTENMFCAGYYEGGKDTCLGDSGGAFVIFDDLSQRWVVQGLVSWGGPEECGSKQVYGVYTKVSNYVDWVWEQMGLPQSVVEPQVER
B1 was tested, and the “cleavage of pro-factor D (Western blot)” value was “only full length MASP-3 (lane 2) and the MASP-1 CCP1-CCP2-SP) fragment (lane 5) cleaved ST-pro-factor D-His6”.

B2: recombinant human MASP-1 (CCP1-CCP2-SP) fragment, active (protein)
chain: GNECPELQPPVHGKIEPSQAKYFFKDQVLVSCDTGYKVLKDNVEMDTFQIECLKDGTWSNKIPTCKIVDCRAPGELEHGLITFSTRNNLTTYKSEIKYSCQEPYYKMLNNNTGIYTCSAQGVWMNKVLGRSLPTCLPVCGLPKFSRKLMARIFNGRPAQKGTTPWIAMLSHLNGQPFCGGSLLGSSWIVTAAHCLHQSLDPKDPTLRDSDLLSPSDFKIILGKHWRLRSDENEQHLGVKHTTLHPKYDPNTFENDVALVELLESPVLNAFVMPICLPEGPQQEGAMVIVSGWGKQFLQRFPETLMEIEIPIVDHSTCQKAYAPLKKKVTRDMICAGEKEGGKDACSGDSGGPMVTLNRERGQWYLVGTVSWGDDCGKKDRYGVYSYIHHNKDWIQRVTGVRN
With B2 the “cleavage of pro-factor D (Western blot)” value was “only full length MASP-3 (lane 2) and the MASP-1 CCP1-CCP2-SP) fragment (lane 5) cleaved ST-pro-factor D-His6”.
